In US20090325259A1, “USE OF ADHESION MOLECULES AS BOND STRESS-ENHANCED NANOSCALE BINDING SWITCHES” (priority 2002, published 2009):
Changes are numbered by the printed parent chain. Names and notes keep the numbering of the source.

B1: FimH-j96-Q32L:S124A: FimH-j96 with combined Q32L and S124A mutations in the loop regions near the linker chain (protein)
chain: FACKTANGTAIPIGGGSANVYVNLAPAVNVGLNLVVDLSTQIFCHNDYPETITDYVTLQRGSAYGGVLSSFSGTVKYNGSSYPFPTTSETPRVVYNSRTDKPWPVALYLTPVSSAGGVAIKAGALIAVLILRQTNNYNSDDFQFVWNIYANNDVVVPTGGCDVSARDVTVTLPDYPGSVPIPLTVYCAKSQNLGYYLSGTTADAGNSIFTNTASFSPAQGVGVQLTRNGTIIPANNTVSLGAVGTSAVSLGLTANYARTGGQVTAGNVQSIIGVTFVYQ
B2: FimH-j96-V156P: FimH-j96 with the V156P point mutation in the linker chain (protein)
chain: B1 chain with L32Q, A124S, V156P
B3: V154P: point mutation V154P engineered into the FimH-j96 and FimH-f18 variants (protein)
chain: B1 chain with L32Q, A124S, V154P
B4: V156P: point mutation V156P engineered into the FimH-j96 and FimH-f18 variants (protein)
chain: B1 chain with L32Q, A124S, V156P
B5: FimH-f18-V156P: FimH-f18 with the V156P point mutation in the linker chain (protein)
chain: B1 chain with L32Q, A124S, V156P
B6: V155P: point mutation V155P engineered into the FimH-j96 and FimH-f18 variants (protein)
chain: B1 chain with L32Q, A124S, V155P

Key:
[1] = test system: guinea pig red blood cells (RBCs); assay: Parallel plate flow chamber, RBCs on carpet of FimH-expressing E. coli; type: cell-based; details: low shear, 0.01 to 0.14 dynes/cm^2
Protocol: Bacteria-coated dishes were prepared as follows: 35 mm tissue culture dishes were incubated with 20 μg/ml RNAse B in 0.02 M bicarbonate buffer for 1 hr at 37° C. and washed three times in PBS with 0.1% BSA (PBS-BSA). The dishes were then incubated with 200 μl PBS-BSA containing 108 colony-forming units of E. coli for 1 hr at 37° C. and washed three times. […] The dishes were then placed under a Glycotech parallel plate flow chamber with a size B gasket (2.5 cm×0.25 cm×250 μm) and sealed with vacuum. A Harvard model #975 pulse-free syringe pump was used to pump fluid through the chamber. […]
RBC movement was recorded using phase contrast microscopy with a 20× objective, a CCD camera, and Metamorph video imaging software by Universal Imaging. Videos were recorded at 1 frame every 2 s for a total of 3 min at each shear rate. […] The average velocity for each cell was calculated from these positions over the 3 min at each shear. […] We only analyzed cells that were attached and in the field of view at the start of the 3 min time frame. The off-rate of RBCs was calculated from the X, the percent of original RBCs remaining bound at time t, using the formula k=1/t·ln(1/X), and using t=3 min. […]

[2] = test system: guinea pig red blood cells (RBCs); assay: RBC rosette-formation assay (static agglutination); type: cell-based; details: static rosette-formation assay
Protocol: (§1) Assays of bacterial adhesion to Man1-BSA and bovine RNAseB immobilized in 96-well plates were carried out as described previously (Sokurenko et al., 1995). Briefly, Man1-BSA and bovine RNAseB were dissolved at 20 μg/ml in 0.02 M bicarbonate buffer, and 100 μl aliquots were incubated in microtiter wells for 1 hr at 37° C. The wells were then washed three times with PBS and quenched with 0.1% BSA in PBS. 3H-thymidine-labeled bacteria were added in 0.1% BSA in PBS and incubated for 40 min at 37° C. without shaking to achieve saturation, and the wells were then washed with PBS. The individual wells were subjected to scintillation counting. The density of bacteria used in all assays was 5×10^7 colony forming units per 100 μl. RBC rosette-formation assay was performed by mixing equal amounts of serially diluted bacterial suspensions (starting from OD540 nm=1.0) and a 1% suspension of RBC in U-bottom microtiter plate wells. On-slide agglutination assays were performed by mixing the suspension of RBC and bacteria on a slide surface followed by rocking at ˜3 s^−1.
Two commonly used RBC agglutination assays were performed that utilize different shear conditions. […] If no agglutination occurs, RBCs fall into a pellet in the bottom of the well (FIG. 15A), while agglutination results in a rosette of RBCs crosslinked by bacteria. […]

[3] = test system: bovine RNAse B (trimannose); assay: Bacterial adhesion to bovine RNAse B-coated microplate (trimannose), static; type: binding; details: mutations in FimH-j96 and FimH-f18
Protocol: as §1

Molecule | Adhesion of RBCs to bacterial carpet under low shear [1] | RBC agglutination under static conditions (in words) [2] | Trimannose binding function of point mutants (in words) [3]
B1 | moved much more under low shear stress than those on FimH-j96 | – | –
B2 | – | significantly better than the corresponding wild-types | –
B3 | – | – | entirely conserved
B4 | – | – | entirely conserved
B5 | dramatically stronger adhesion under low shear than did the FimH-f18 parent | significantly better than the corresponding wild-types | –
B6 | – | – | entirely conserved
